One block for each binder: values may come before it.
Experiments:
[1] = molecular target: T1, recombinant human PD-1 ECD-6His protein (Bio-Techne, item BP164049-1 mg) (human, UniProt Q15116 25-170); assay: SPR, mAb captured on protein A chip, PD-1 protein injected
T1 construct: extracellular domain; Bought protein; also called human PD-1-ED-6His; recombinant human PD-1 protein; not shown: hexahistidine tag

canine PD-1 ECD-6His = molecular target: T2, canine PD-1 ECD-6His (canine); assay: SPR multi-cycle kinetics, mAb captured on protein A chip, monomeric PD-1 ECD-6His analyte
T2 construct: also called recombinant canine PD-1-ECD-6His protein; not shown: hexahistidine tag
T2 chain: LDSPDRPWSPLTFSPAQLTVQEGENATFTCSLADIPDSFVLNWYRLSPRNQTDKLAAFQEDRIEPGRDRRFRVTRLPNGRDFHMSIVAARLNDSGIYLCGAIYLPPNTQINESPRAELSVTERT

T1 sequence (Q15116 25-170): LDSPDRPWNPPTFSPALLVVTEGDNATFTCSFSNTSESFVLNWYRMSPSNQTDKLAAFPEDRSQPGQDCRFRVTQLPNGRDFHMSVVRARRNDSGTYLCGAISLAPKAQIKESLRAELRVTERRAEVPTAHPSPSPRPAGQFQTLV

binding result [1]: no binding (tested: 900 nM)
B1: PMX126 (antibody, V domains shown)
VH: EVQLVESGGDLVKPAGSLRLSCLASGFTFSSYSMSWVRQAPEKGLQSVAGINSDGDRTYYTDAVKGRFTISRDNAKSTVYLQMNSLRAEDTAMYYCVRGFSSFNAFGYWGQGTLVTVSS
VL: DIVMTQTPLSLSVSPGETASISCKASQSLLHSDGNTYLSWFRQKPGQSPHRLIYAVSHRHPGVPDRFSGSGSGTDFTLRISRVEADDAGLYYCGQVIQDPWTFGAGTKVELK
notes: Alexa Fluor 647-labelled in some assays

binding result [1]: no binding (tested: 900 nM)
B2: PMX127 (antibody, V domains shown)
VH: EVQLVESGGDLVKPGGSLRLSCVASGFSFSRYHMSWVRQAPGKGLQWVAYIVSGGISTSYADAVKGRFTISRDNAKNTLFLQMNSLRAEDTAVYYCATYGSYFFDTWGQGTLVTVSS
VL: DIVMTQTPLSLSVSPGETASIFCKASQSLLHSDGKSYLNWFRQKPGQSPQRLIYRVSNRDPGVPDRFSGSGSGTDFTLRISRVEADDTGLYYCGQVIQDPTFGAGTKVELK
notes: Alexa Fluor 647-labelled in some assays; also called PM127

binding result (canine PD-1 ECD-6His): binds
B3: PMX152 (antibody, V domains shown)
VH: EVQLVESGGDLVKPGGSLRLSCVASGFTFSRYYMNWVRQAPGKGPQWVAYINNAGSDRNYVDAVKGRFTISRDNAKNTLYLQMNSLRAEDTAVYYCASEIRGVVVVGHLDYWGQGTLVTVSS
VL: SYVLTQLPSKSVTLNQPAHITCGGDNIGSKSVHWYQQKLGQAPVLIIYYDSIRPTGIPERFSGATSGNTATLTISGALAEDEADYYCQVWDSSAKAWVFGEGTQLTVL
notes: also called PM152
